For 45 molecules, optical density results are on record in US20210380703A1.

Substitutions are numbered along the chain they refer to.

The labels stand for the following.
B1: 375_D07 (antibody, V domains shown)
VH: EVQLLESGGGLVQPGGSLRLSCAASGFTFSSYGMNWVRQAPGKGLEWVANINYNSGYTGYADSVKGRFTISRDNSKNTLYLQMNSLRAEDTAVYYCARSANWHDTALDYWGQGTLVTVSS
VL: DIQMTQSPSSLSASVGDRVTITCRASQSIITYLNWYQQKPGKAPKLLIYAATSRASGVPSRFSGSGSGTDFTLTISSLQPEDFATYYCQQSYDTPLTFGGGTKVEIK
B2: 376_C02 (antibody, V domains shown)
VH: B1 VH with S30D, A49S, N50G, G59S
VL: B1 VL with I30V, T31S, L47V, A51V, T94S
B3: 369_C10 (antibody, V domains shown)
VH: B1 VH with G33S, S55G, G59S, N101T
VL: B1 VL with I30V, R54L, A55H, Y92D, D93S, T94L
B4: 376_H09 (antibody, V domains shown)
VH: B1 VH with S31D, G33S, S55G
VL: B1 VL with L47V, A50Y, A51V, T52S, S53N, R54L, A55P, T94S
B5: 376_C12 (antibody, V domains shown)
VH: B1 VH with G33S, N50G, S55G
VL: B1 VL with I30L, L33V, T94S
B6: 366_B04 (antibody, V domains shown)
VH: B1 VH with S30D, G33S, N50G, S55G, T58K, N101T, A106H
VL: B1 VL with I30L, L33V, L47V, A55H
B7: 375_D12 (antibody, V domains shown)
VH: B1 VH with S30D, A49S, N50S, G59S
VL: B1 VL with I30L, L33V, L47V, D93E
B8: 376_H10 (antibody, V domains shown)
VH: B1 VH with S30D, G33S, A49S, N50G, T58K, G59S
VL: B1 VL with I30L, L47V, A55H, T94S
B9: 375_E01 (antibody, V domains shown)
VH: B1 VH with G33S, A49S, N50G, T58K, G59S
VL: B1 VL with I30L, L47V, Y92D, T94S
B10: 376_A12 (antibody, V domains shown)
VH: B1 VH with G33S, T58K
VL: B1 VL with I30L, T31S, L33V, L47V
B11: 376_A06 (antibody, V domains shown)
VH: B1 VH with S30D, G33S, A49S, N50G, G59S, N101T
VL: B1 VL with I30L, T31S, L47V, A50Y, A51V, T52S, S53N, T94N
B12: 376_B04 (antibody, V domains shown)
VH: B1 VH with S30D, N35H, N50S, S55G
VL: B1 VL with I30V, T31S, L33V, L47V
B13: 368_D10 (antibody, V domains shown)
VH: B1 VH with S30D, N50G, G59S, N101T
VL: B1 VL with I30L, T31S, L47V, T94S
B14: 373_E03 (antibody, V domains shown)
VH: B1 VH with S30D, A49S, S55G, N101T
VL: B1 VL with I30L, T31S, L33V, L47V, T94L
B15: 376_B09 (antibody, V domains shown)
VH: B1 VH with S30D, G33S, T58K
VL: B1 VL with I30L, L33V, L47V, T94L
B16: 375_E07 (antibody, V domains shown)
VH: B1 VH with S31D, G33S, N50G, T58K
VL: B1 VL with I30V, A50V, A51V, S53N, A55E, D93E
B17: 367_C03 (antibody, V domains shown)
VH: B1 VH with G33S, S55G, N101T
VL: B1 VL with I30L, T31S, L33V, L47V, A51T, D93E, T94N
B18: 370_A09 (antibody, V domains shown)
VH: B1 VH with G33S, N50G, S55G, N101T, A106H
VL: B1 VL with I30L, L47V
B19: 376_B11 (antibody, V domains shown)
VH: B1 VH with G33S, A49S, N50G, S55G, G59S
VL: B1 VL with I30L, T31S, L33V, L47V, T94L
B20: 376_D05 (antibody, V domains shown)
VH: B1 VH with G33S, A49S, S55G, T58K
VL: B1 VL with I30V, T31S, L33V, R54L
B21: 375_H12 (antibody, V domains shown)
VH: B1 VH with N50G, S55G, T58K
VL: B1 VL with I30L, A50Y, A51V, S53N, A55Q, D93S, T94I
B22: 376_B05 (antibody, V domains shown)
VH: B1 VH with G33S, S55G
VL: B1 VL with T31S, L33V, D93E, T94L
B23: 369_F07 (antibody, V domains shown)
VH: B1 VH with S30D, G33S, N50G, S55G, T58K, G59S, N101T, A106H
VL: B1 VL with I30L, T31S, L33V, L47V, D93E, T94S
B24: 365_G12 (antibody, V domains shown)
VH: B1 VH with N50G, G59S, N101T
VL: B1 VL with I30L, T31S, L33V, L47V, D93S, T94N
B25: 369_E10 (antibody, V domains shown)
VH: B1 VH with G33S, A49S, S55G, T58K, G59S, N101T
VL: B1 VL with I30L, T31S, L33V, L47V, T94L
B26: 365_B03 (antibody, V domains shown)
VH: B1 VH with G33S, N50G, S55G, N101T, A106H
VL: B1 VL with I30V, T31S, D93E, T94N
B27: 374_C08 (antibody, V domains shown)
VH: B1 VH with S30D, A49S, N50G, T58K, G59S, N101T
VL: B1 VL with I30L, T31S, L33V, A51V, T94S
B28: 376_B07 (antibody, V domains shown)
VH: B1 VH with S30D, G33S, A49S, N50G, G59S, N101T
VL: B1 VL with I30L, T31S, L47V, A50Y, A51V, T52S, S53N, T94N
B29: 370_G12 (antibody, V domains shown)
VH: B1 VH with G33S, N50G, S55G, T58K, N101T
VL: B1 VL with R54L, Y92D, D93E, T94S
B30: 367_H07 (antibody, V domains shown)
VH: B1 VH with G33S, S55G, N101T
VL: B1 VL with I30L, T31S, L33V, L47V, A51T, D93E, T94N
B31: 376_C01 (antibody, V domains shown)
VH: B1 VH with S30D, G33S, N50G, S55G, G59S
VL: B1 VL with I30L, R54L, T94N
B32: 376_E08 (antibody, V domains shown)
VH: B1 VH with S31D, N50G, S55G, G59S
VL: B1 VL with I30V, T31S, L33V, L47V, T94S
B33: 368_C01 (antibody, V domains shown)
VH: B1 VH with S30D, N50G, S55G, N101T
VL: B1 VL with T94S
B34: 376_D11 (antibody, V domains shown)
VH: B1 VH with S55G
VL: B1 VL with I30L, T31S, L47V, D93N, T94N
B35: 376_G09 (antibody, V domains shown)
VH: B1 VH with S30D, G33S, A49S, N50G, T58K
VL: B1 VL with I30S, T31Y, A51V, T94N
B36: 367_A09 (antibody, V domains shown)
VH: B1 VH with S30D, N50G, S55G, G59S, N101T, A106H
VL: B1 VL with I30L, T31S, L33V, L47V, A55H
B37: 373_H10 (antibody, V domains shown)
VH: B1 VH with G33S, N50G, S55G, N101T, A106H
VL: B1 VL with I30L, T31S, L33V, D93S, T94L
B38: 376_A04 (antibody, V domains shown)
VH: B1 VH with S30D, G33S, A49S, S55G, G59S
VL: B1 VL with I30V, L47V, T94S
B39: 376_G08 (antibody, V domains shown)
VH: B1 VH with S30D, S55G, G59S
VL: B1 VL with I30L, T31S, L33V, L47V
B40: 376_E03 (antibody, V domains shown)
VH: B1 VH with S55G
VL: B1 VL with I30L, T31S, L33V, L47V, R54L, T94L
B41: 376_A10 (antibody, V domains shown)
VH: B1 VH with S31D, A49S, T58K
VL: B1 VL with I30L, T31S, D93E, T94S
B42: 365_F07 (antibody, V domains shown)
VH: B1 VH with G33S, A49S, S55G, T58K, G59S, N101T
VL: B1 VL with I30L, T31S, L33V, L47V, T94L
B43: 376_C06 (antibody, V domains shown)
VH: B1 VH with N50G, S55G, G59S, N101T
VL: B1 VL with I30L, T31S, L47V, T94S
B44: 369_A05 (antibody, V domains shown)
VH: B1 VH with G33S, N50G, S55G, N101T, A106H
VL: B1 VL with I30L, L33V, L47V, D93E, T94S
B45: 365_E02 (antibody, V domains shown)
VH: B1 VH with G33S, S55G, G59S, R98K, N101T, A106H
VL: B1 VL with T31S, D93E, T94N

The target in this assay is human Fc (human). Kind of assay: ELISA; negative control. On the technique in general: In an ELISA, binding on a coated surface is turned into a signal by an enzyme label.
Molecule B1 had an optical density of 0.176 OD.

B2 displayed an optical density of 0.222 OD.

Consider B3, for which the optical density amounted to 0.32 OD.

B4: the optical density came to 0.281 OD.

As for B5, the optical density was found to be 0.438 OD.

B6 yielded an optical density of 0.331 OD.

For B7, the optical density turned out to be 0.193 OD.

Consider B8, for which the optical density came to 0.318 OD.

B9: the optical density stood at 0.164 OD.

B10 returned an optical density of 0.22 OD.

Take B11: the optical density was found to be 0.262 OD.

For the molecule B12, the optical density came out at 0.293 OD.

B13 returned an optical density of 0.245 OD.

In turn, B14 displayed an optical density of 0.194 OD.

The molecule B15 registered an optical density of 0.227 OD.

As for B16, the optical density worked out at 0.158 OD.

Molecule B17 came in with an optical density of 0.275 OD.

Consider B18, for which the optical density was found to be 0.361 OD.

With B19, the optical density turned out to be 0.261 OD.

B20 gave an optical density of 0.215 OD.

Molecule B21 showed an optical density of 0.188 OD.

For the molecule B22, the optical density stood at 0.242 OD.

As for B23, the optical density stood at 0.335 OD.

Regarding B24, the optical density was found to be 0.556 OD.

In the case of B25, the optical density was found to be 0.412 OD.

The molecule B26 yielded an optical density of 0.444 OD.

In the case of B27, the optical density was found to be 0.178 OD.

Regarding B28, the optical density stood at 0.234 OD.

Take B29: the optical density was determined as 0.418 OD.

Molecule B30 returned an optical density of 0.297 OD.

Molecule B31 had an optical density of 0.324 OD.

For the molecule B32, the optical density was found to be 0.332 OD.

In turn, B33 had an optical density of 0.41 OD.

Consider B34, for which the optical density was 0.267 OD.

B35 gave an optical density of 0.23 OD.

B36 had an optical density of 0.259 OD.

B37 yielded an optical density of 0.2 OD.

B38 had an optical density of 0.245 OD.

In the case of B39, the optical density was 0.22 OD.

The molecule B40 registered an optical density of 0.234 OD.

B41 registered an optical density of 0.279 OD.

Take B42: the optical density stood at 0.331 OD.

Regarding B43, the optical density was 0.29 OD.

B44 had an optical density of 0.588 OD.

B45: the optical density is 0.357 OD.
